Laboratory results as given in US11472877 (Alector, dated 2022).
Changes are numbered by the printed parent chain.

T1: mouse TREM2 on BWZ cells (mouse, UniProt Q99NH8 19-227)
T1 construct: whole, on cells; also called BWZ Mouse TREM2
T1 sequence (looked up): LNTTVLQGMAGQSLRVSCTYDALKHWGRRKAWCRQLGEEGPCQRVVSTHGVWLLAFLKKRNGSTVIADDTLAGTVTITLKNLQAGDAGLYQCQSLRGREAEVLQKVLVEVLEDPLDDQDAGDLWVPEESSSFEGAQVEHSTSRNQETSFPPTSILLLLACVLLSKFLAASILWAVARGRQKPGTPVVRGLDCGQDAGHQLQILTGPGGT

T2: human TREM2 on BWZ cells (human, UniProt Q9NZC2 19-230)
T2 construct: whole, on cells; not tied to the cell line; also called BWZ Human TREM2
T2 sequence (looked up): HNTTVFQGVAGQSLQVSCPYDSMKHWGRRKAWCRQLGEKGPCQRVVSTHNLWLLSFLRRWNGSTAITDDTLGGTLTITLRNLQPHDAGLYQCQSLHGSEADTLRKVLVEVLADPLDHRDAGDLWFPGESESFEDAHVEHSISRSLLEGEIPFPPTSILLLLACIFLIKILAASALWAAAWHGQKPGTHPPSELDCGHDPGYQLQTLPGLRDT

B1: T1-35 (antibody, IgG1, V domains shown)
VH: QVQLVESGGGVVQPGRSLRLSCAASGFTFSSYGMHWVRQAPGKGLEWVAVISYDGSNKYYADSVKGRFTISRDNSKNTLYLQMNSLRAEDTAVYYCARPDYYSSRGVFDIWGQGTMVTVSS
VL: not shown
notes: huIgG1; also called TI-35; ADI-19109
B2: T1-36 (antibody, IgG1, V domains shown)
VH: B1 VH
VL: not shown
notes: huIgG1; also called TI-36; ADI-19110
B3: T1-57 (antibody, IgG1, V domains shown)
VH: EVQLVESGGGLVQPGRSLRLSCAASGFTFDDYAMHWVRQAPGKGLEWVSGITWNSGSIGYADSVKGRFTISRDNAKNSLYLQMNSLRAEDTALYYCAKGPRYSKPYFDYWGQGTLVTVSS
VL: DIQMTQSPSSVSASVGDRVTITCRASQGIDSWLAWYQQKPGKAPKLLIYAASSLQSGVPSRFSGSGSGTDFTLTISSLQPEDFATYYCQQRAVFPPTFGGGTKVEIK
notes: huIgG1; also called TI-57; ADI-19132
B4: T1-41 (antibody, IgG1, V domains shown)
VH: not shown
VL: DIQLTQSPSSVSASVGDRVTITCRASQDISSWLAWYQQKPGKAPKLLIYAASSLQSGVPSRFSGSGSGTDFTLTISSLQPEDFATYYCQQAVIHPPYTFGGGTKVEIK
notes: huIgG1; also called TI-41; ADI-19115
B5: T1-43 (antibody, IgG1, V domains shown)
VH: QVQLVQSGAEVKKPGASVKVSCKASGYTFTSYYMHWVRQAPGQGLEWMGIINPSGGSTSYAQKFQGRVTMTRDTSTSTVYMELSSLRSEDTAVYYCAREAGNYYDIESAFDIWGQGTMVTVSS
VL: not shown
notes: huIgG1; also called TI-43; ADI-19117
B6: T1-49 (antibody, IgG1, V domains shown)
VH: QVQLVQSGAEVKKPGASVKVSCKASGYTFTSYYMHWVRQAPGQGLEWMGIINPSGGSTSYAQKFQGRVTMTRDTSTSTVYMELSSLRSEDTAVYYCAREAGSWLISTAFDIWGQGTMVTVSS
VL: not shown
notes: huIgG1; also called TI-49; ADI-19122
B7: T1-44 (antibody, IgG1, V domains shown)
VH: QVQLVQSGAEVKKPGASVKVSCKASGYTFTSYYMHWVRQAPGQGLEWMGVINPSGGSTSYAQKFQGRVTMTRDTSTSTVYMELSSLRSEDTAVYYCAREGSGYDESMDVWGQGTTVTVSS
VL: not shown
notes: huIgG1; also called TI-44; ADI-19119
B8: T1-10 (antibody, IgG1, V domains shown)
VH: B7 VH with V50I, Y103S, D104W, S106T, M107L, T115M
VL: not shown
notes: huIgG1; also called TI-10; ADI-19077
B9: T1-8 (antibody, IgG1, V domains shown)
VH: B7 VH with V50I, G100V, G102M, Y103T, D104A, E105A, M107L, T115M
VL: not shown
notes: huIgG1; also called TI-8; ADI-19074
B10: T1-48 (antibody, IgG1, V domains shown)
VH: B7 VH with S54G, G100A, S101G, G102Q, Y103T, D104S, E105S, S106A, M107L, T115M
VL: not shown
notes: huIgG1; also called TI-48; ADI-19121
B11: T1-45 (antibody, IgG1, V domains shown)
VH: B7 VH
VL: not shown
notes: huIgG1; also called TI-45; ADI-19123
B12: T1-46 (antibody, IgG1, V domains shown)
VH: B7 VH
VL: not shown
notes: huIgG1; also called TI-46; ADI-19124
B13: T1-40 (antibody, IgG1, V domains shown)
VH: EVQLVESGGGLVKPGGSLRLSCAASGFTFSSYSMNWVRQAPGKGLEWVSSISSSSSYIYYADSVKGRFTISRDNAKNSLYLQMNSLRAEDTAVYYCARTRIDDSFDIWGQGTMVTVSS
VL: not shown
notes: huIgG1; also called TI-40; ADI-19114
B14: T1-39 (antibody, IgG1, V domains shown)
VH: EVQLVESGGGLVKPGGSLRLSCAASGFTFSSYSMNWVRQAPGKGLEWVSSISSSSNYIYYADSVKGRFTISRDNAKNSLYLQMNSLRAEDTAVYYCARRGGSSSTGLLYWGQGTLVTVSS
VL: DIQLTQSPSSVSASVGDRVTITCRASQDISSWLAWYQQKPGKAPKLLIYAASSLQSGVPSRFSGSGSGTDFTLTISSLQPEDFATYYCQQSLTHPTFGGGTKVEIK
notes: huIgG1; also called TI-39; ADI-19113
B15: T1-52 (antibody, IgG1, V domains shown)
VH: QVQLVQSGAEVKKPGSSVKVSCKASGGTFSSYAISWVRQAPGQGLEWMGSIIPIFGTANYAQKFQGRVTITADESTSTAYMELSSLRSEDTAVYYCARDRGQYSSSWYGRMDVWGQGTTVTVSS
VL: DIQMTQSPSTLSASVGDRVTITCRASQSISSWLAWYQQKPGKAPKLLIYKASSLESGVPSRFSGSGSGTEFTLTISSLQPDDFATYYCQQSSADSPFTFGGGTKVEIK
notes: huIgG1; also called TI-52; ADI-19127
B16: T1-42 (antibody, IgG1, V domains shown)
VH: QVQLVESGGGVVQPGRSLRLSCAASGFTFSSYGMHWVRQAPGKGLEWVAVIWYDGSNKGYADSVKGRFTISRDNSKNTLYLQMNSLRAEDTAVYYCARELMVTSGGWLYGMDVWGQGTTVTVSS
VL: EIVMTQSPATLSVSPGERATLSCRASQSVSSNLAWYQQKPGQAPRLLIYGASTRATGIPARFSGSGSGTEFTLTISSLQSEDFAVYYCQQYNVHPPRTFGGGTKVEIK
notes: huIgG1; also called TI-42; ADI-19116
B17: T1-50 (antibody, IgG1, V domains shown)
VH: QVQLVQSGAEVKKPGASVKVSCKASGYTFTSYYMHWVRQAPGQGLEWMGIINPGGGSTSYAQKFQGRVTMTRDTSTSTVYMELSSLRSEDTAVYYCAREAGTMSSAFDIWGQGTMVTVSS
VL: not shown
notes: huIgG1; also called TI-50; ADI-19125
B18: T1-55 (antibody, IgG1, V domains shown)
VH: QVQLVQSGAEVKKPGASVKVSCKASGYTFTSYYMHWVRQAPGQGLEWMGVINPSGGSTSYAQKFQGRVTMTRDTSTSTVYMELSSLRSEDTAVYYCARGADYYAGFDYWGQGTLVTVSS
VL: not shown
notes: huIgG1; also called TI-55; ADI-19130
B19: T1-37 (antibody, IgG1, V domains shown)
VH: QVQLVESGGGVVQPGRSLRLSCAASGFTFSSYGMHWVRQAPGKGLEWVALIWYDGSNKYYADSVKGRFTISRDNSKNTLYLQMNSLRAEDTAVYYCAKGDYLDPLFDYWGQGTLVTVSS
VL: EIVMTQSPATLSVSPGERATLSCRASQSVSSNLAWYQQKPGQAPRLLIYGASTRATGIPARFSGSGSGTEFTLTISSLQSEDFAVYYCQQYAYWPLTFGGGTKVEIK
notes: huIgG1; also called TI-37; ADI-19111
B20: T1-38 (antibody, IgG1, V domains shown)
VH: QVQLVESGGGVVQPGRSLRLSCAASGLTFSSYGMHWVRQAPGKGLEWVAVISYDGSNKYYADSVKGRFTISRDNSKNTLYLQMNSLRAEDTAVYYCARERGTYYYASGWANWGQGTLVTVSS
VL: not shown
notes: huIgG1; also called TI-38; ADI-19112
B21: T1-18 (antibody, IgG1, V domains shown)
VH: EVQLVESGGGLVQPGRSLRLSCAASGFTFDDYAMHWVRQAPGKGLEWVSGISWNSGDIGYADSVKGRFTISRDNAKNTLYLQMNSLRAEDTALYYCAKGPRMVTHLDVWGQGTMVTVSS
VL: DIQMTQSPSTLSASVGDRVTITCRASQSISSWLAWYQQKPGKAPKLLIYKASSLESGVPSRFSGSGSGTEFTLTISSLQPDDFATYYCQQDSIYPITFGGGTKVEIK
notes: huIgG1; also called TI-18; ADI-19085
B22: T1-51 (antibody, IgG1, V domains shown)
VH: QVQLVQSGAEVKKPGSSVKVSCKASGGTFSSYAISWVRQAPGQGLEWMGSIIPIFGTANYAQKFQGRVTITADESTSTAYMELSSLRSEDTAVYYCARSGGYSSSWYGTGYDYWGQGTLVTVSS
VL: B21 VL with D91F, S92Q, I93S, I96F
notes: huIgG1; also called TI-51; ADI-19126
B23: T1-56 (antibody, IgG1, V domains shown)
VH: B21 VH with D57S, T78S, M102L, V103L, T104G, H105Y, L106F, V108L, Q111R, M114L
VL: not shown
notes: huIgG1; also called TI-56; ADI-19131
B24: T1-9 (antibody, IgG1, V domains shown)
VH: QVQLVQSGAEVKKPGASVKVSCKASGYTFTSYYMHWVRQAPGQGLEWMGIINPSGGSTSYAQKFQGRVTMTRDTSTSTVYMELSSLRSEDTAVYYCAREAGYDISSAFDIWGQGTMVTVSS
VL: not shown
notes: huIgG1; also called TI-9; ADI-19076
B25: T1-6 (antibody, IgG1, V domains shown)
VH: B24 VH with I50V, A100S, Y102H, D103S, I104Y, S105V, A107S, I110P, M116L
VL: not shown
notes: huIgG1; also called TI-6; ADI-19072
B26: T1-53 (antibody, IgG1, V domains shown)
VH: B24 VH with M34I, A100S, D103H, I104V, S106T
VL: not shown
notes: huIgG1; also called TI-53; ADI-19128
B27: T1-58 (antibody, IgG1, V domains shown)
VH: QLQLQESGPGLVKPSETLSLTCTVSGGSISSSSYYWGWIRQPPGKGLEWIGSIYYSGSTYYNPSLKSRVTISVDTSKNQFSLKLSSVTAADTAVYYCARQEYGDGYFDLWGRGTLVTVSS
VL: not shown
notes: huIgG1; also called TI-58; ADI-19133

Molecular target: T1, mouse TREM2 on BWZ cells
Experiment: FACS, BWZ cells

Binding result, no binding:
B1
B2
B3
B4
B5
B6
B7
B8
B9
B10
B11
B12
B13
B14
B15
B16
B17
B18
B19
B20
B21
B22
B23
B24
B25
B26

Molecular target: T2, human TREM2 on BWZ cells
Experiment: FACS, BWZ cells

Binding result, no binding:
B1
B2
B3
B4
B5
B7
B8
B9
B10
B11
B12
B13
B14
B15
B16
B27
B17
B18
B19
B20
B21
B22
B23
B24
B25
B26
